Paper PMC12319226 (Frontiers in Bioinformatics, 2025)

T1: Neisseria meningitidis factor H binding protein variant 3.28 (Neisseria meningitidis, fHbp variant …, strain)
T1 construct: also called fHbp v3.28; fHbp variant 3.28
T1 chain: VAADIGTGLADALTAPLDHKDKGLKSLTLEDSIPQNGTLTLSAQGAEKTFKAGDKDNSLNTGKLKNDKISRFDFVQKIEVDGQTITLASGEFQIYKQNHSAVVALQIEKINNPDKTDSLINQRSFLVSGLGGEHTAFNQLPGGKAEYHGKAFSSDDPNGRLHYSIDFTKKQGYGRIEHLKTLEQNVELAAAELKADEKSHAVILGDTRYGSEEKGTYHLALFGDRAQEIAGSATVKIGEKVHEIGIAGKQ

T2: fHbp m000019 (Neisseria meningitidis, fHbp v1.1 …, point mutant)
T2 construct: also called Round 1 best mutant
T2 chain: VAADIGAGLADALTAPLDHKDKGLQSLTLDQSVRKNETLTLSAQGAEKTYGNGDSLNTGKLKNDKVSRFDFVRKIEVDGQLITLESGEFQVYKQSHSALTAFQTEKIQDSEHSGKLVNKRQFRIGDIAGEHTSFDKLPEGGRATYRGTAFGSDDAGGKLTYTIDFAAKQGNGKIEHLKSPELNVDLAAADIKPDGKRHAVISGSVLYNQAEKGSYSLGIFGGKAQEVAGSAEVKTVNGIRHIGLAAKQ

T3: fHbp m002416 (Neisseria meningitidis, fHbp v3.28/v1.1 …, point mutant)
T3 construct: also called fHbp 2,416; Round 2 best mutant
T3 chain: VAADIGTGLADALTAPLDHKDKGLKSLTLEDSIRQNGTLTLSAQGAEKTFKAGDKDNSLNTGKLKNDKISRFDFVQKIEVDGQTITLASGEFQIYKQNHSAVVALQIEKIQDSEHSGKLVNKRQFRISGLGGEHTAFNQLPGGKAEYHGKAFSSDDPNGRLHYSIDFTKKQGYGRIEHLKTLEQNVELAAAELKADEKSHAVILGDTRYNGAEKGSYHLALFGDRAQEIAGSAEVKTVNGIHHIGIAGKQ

B1: human mAb 4B3 (antibody, V domains shown)
VH: QVQLVQSGGGLVKPGGSLRLSCAASGFPFSSYYMSWIRQAPGKGLEWVSDINNSGNVKEYADFVKGRLTISRDNVKNSMYLHMNSLRVEDTAVYYCARNRGRFDVWGQGTLVTVSA
VL: EIVMTQSPGTLSLSPGETATLSCRASQMISSPFLAWYQQRRGQAPRLLIYGASTRATDTPDRFRGSGSGTDFILTISRLEPEDFAVYYCQYYDDSPFTFGQGTKLEIK
notes: source: Expi293, transient transfection, purified (MabSelect SuRe, SEC)
B2: human mAb 1E6 (antibody, V domains shown)
VH: EVQLVQSGAEVKKPGSSVKVSCKASGGTVIDYPITWVRQAPGQGLEWVGGFVPLFRTSNYGQKFQGRVTITADKSTSTASMELNSLTSEDTAIYYCARGDTAMGPFDYWGQGTLVTVSS
VL: SYVLTQPPSLSVAPGKTATLTCGGNNIAGKTVHWYQQRPGQAPVLVISYDSDRPSGIPERFSGSNSANTATLTISRVEAGDEADYYCQVWDRNSDHWVFGGGTKLTVL
notes: as for B1

What was measured:
Assay in all cases: BLI
Details in all cases: both partners purified
[1] = target: T4, Neisseria meningitidis factor H binding protein variant 1.1 (Neisseria meningitidis, UniProt Q9JXV4)
T4 construct: also called fHbp v1.1; fHbp variant 1.1

[2] = target: T1, Neisseria meningitidis factor H binding …
fHbp m000019 = target: T2, fHbp m000019
fHbp m002416 = target: T3, fHbp m002416

Binder	Kd [1] [nM]	Kd [2] [nM]	Kd (fHbp m000019) [nM]	Kd (fHbp m002416) [nM]
B1	1 to 5	5 to 6	2.4	3.8
B2	3 to 10	2 to 4	0.8	0.32
